Experimental findings from the nanobody polyreactivity screen of Harvey et al. (2022) are described below.

This series in a line: yeast display, Sf9 membrane polyspecificity reagent, FACS + sequencing; frameworks hold sequencing errors. An outline of the steps:
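Galactose induction of a Saccharomyces cerevisiae BJ5465 synthetic nanobody display library ran 36–48 hours. The cells were then stained for 1 hour at 4 °C with 10% biotinylated, detergent-solubilized Sf9 membrane reagent, pulled down on streptavidin microbeads and FACS-sorted into low and high (top ~1%) gates on expression and reagent-binding fluorescence. Labels for polyreactivity follow the gate of origin.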
In the case of “QVQLVESGGGLVQAGGSLRLSCAASGFIFTYYVMGWYRQAPGKERELVATISISDGTTYADSVKGRFTISRDNAKNTVYLQMNSLKPEDTAVYYCAKYFTTYKYDYWGQGTQVTVSS”, the “polyreactivity (PSR sort gate)” value is “low polyreactivity”.
With “QVQLVESGGGLVQAGGSLRLSCAASGFIFVDNAMGWYRQAPGKERELVAAITYRGGSTYYADSVKGRFTISRDNAKNTVYLQMNSLKPEDTAVYYCNADYGDTFEYDYWGQGTQVTVSS” the entry was “low polyreactivity”; with “QVQLVESGGGLVQAGGSLRLSCAASGFIFVDYDMGWYRQAPGKERELVASINWSGGSTDYADSVKGRFTISRDNAKNTVYLQMNSLKPEDTAVYYCAAEGQDGRFYWGQGTQVTVSS”, “low polyreactivity”.
Regarding “QVQLVESGGGLVQAGGSLRLSCAASGFIFVFYAMGWYRQAPGKERELVAAITWSGGGTYYADSVKGRFTISRDNAKNTVYLQMNSLKPEDTAVYYCNAEEPQYYYVLDKLYDYWGQGTQVTVSS”, the “polyreactivity (PSR sort gate)” value is listed as “low polyreactivity”.
With “QVQLVESGGGLVQAGGSLRLSCAASGFIFVFYDMGWYRQAPGKERELVAGITRNDGSTYYADSVKGRFKISRDNAKNTVYLLMNSLKPEDTAVYYCAADRVRRNDKLAYDYWGQGTQVTVSS” the entry was “low polyreactivity”; with “QVQLVESGGGLVQAGGSLRLSCAASGFIFVGNAMGWYRQAPGKERELVAAISRRGSRTFYADSVKGRFTISRDNAKNTVYLQMNSLKPEDTAVYYCATDKWYGYYYWGQGTQVTVSS”, “low polyreactivity”.
With “QVQLVESGGGLVQAGGSLRLSCAASGFIFVGYAMGWYRQAPGKERELVAAISKSGGSTYYADSVKGRFTISRDNAKNTVYLQMNSLKPEDTAVYYCAAAYASRNYRGLDYWGQGIQVTVSS” the entry was “high polyreactivity”; with “QVQLVESGGGLVQAGGSLRLSCAASGFIFVKYAMGWYRQAPGKERELVAAISSTGGRTYYADSVKGRFTISRDNAKNTVYLQMNSLKPEVTAVYYCATEYGYPYGYWGQCTQVTVSS”, “high polyreactivity”.
With “QVQLVESGGGLVQAGGSLRLSCAASGFIFVLYAMGWDRQAPGKERELVAAINGGSSTNYADSVKGRFTISRDNAKNTVYLQMNSLKPEDTAVYYCAADVIPDGVKKPRMYYWGQGTQVTVSS”, the “polyreactivity (PSR sort gate)” value is “low polyreactivity”.
“QVQLVESGGGLVQAGGSLRLSCAASGFIFVPNAMGWYRQAPGKERELVAAIRWSDGTTYYADSVKGRFTISRDNAKNTVYLQMNSLKPEDTAVYYCATDHDPRYDYWGQGTQVTVSS”: the “polyreactivity (PSR sort gate)” value was “high polyreactivity”.
With “QVQLVESGGGLVQAGGSLRLSCAASGFIFVPYAMGWYRQAPGKEREFVAAIRCSGGRTYYADSVKGRFSISRDYAKNTVYLQMNSLKPDDTAVYYCAADTWQDRVRKTSFGYDYWGQGTQVTVSS” the entry was “high polyreactivity”; with “QVQLVESGGGLVQAGGSLRLSCAASGFIFVPYAMGWYRQAPGKERELVARITWSGGRTYYADSVKGRFTISRDNAKNTVYLQMNSLKPEDTAVYYCNADVYGFDYWGQGTQVTVSS”, “high polyreactivity”; with “QVQLVESGGGLVQAGGSLRLSCAASGFIFVRNAMGWYRQAPGKERELVAVITRGGSTYYADSVKGRFTISRDNAKNTVYLQMNSLKPEDTAVYYCDARYYRGTYGRTEGAMDYWGQGTQVTVSS”, “high polyreactivity”.
On to “QVQLVESGGGLVQAGGSLRLSCAASGFIFVRYAMGWYRQAPGKERELVAAISWRGGSTYFADSVKGRFTISRDNAKNTVYLQMNSLKPEDTAVYYCAAVTWVHRYSRFNPFVAFDYWGQGTQVTVSS”, for which the “polyreactivity (PSR sort gate)” value is on record as “high polyreactivity”.
Consider “QVQLVESGGGLVQAGGSLRLSCAASGFIFVRYAMGWYRQAPGKERELVAAITRSGTSTYYADSVKGRFTISRDNAKTTVNLQMNSLKPEDTAVYYCAKEVRSRYGYWGQGTQVTVSS”, for which the “polyreactivity (PSR sort gate)” value was “high polyreactivity”.
On to “QVQLVESGGGLVQAGGSLRLSCAASGFIFVRYAMGWYRQAPGKERELVASITRSGGSTYYADSVKGRFTISRDNAKNTVYLQMNSLKPEDTAVYYCNAGLLRRRMDYWGQGTQVTVSS”, for which the “polyreactivity (PSR sort gate)” value is recorded as “high polyreactivity”.
“QVQLVESGGGLVQAGGSLRLSCAASGFIFVRYAMGWYRQAPGTERELVASITRSGGSTYYADSVKGRFTISRDNAKNTVYLQLNSLKPEDSAVYYCAASYYRSRGSTYGYWGQGTQVTVSS”: the “polyreactivity (PSR sort gate)” value is “high polyreactivity”.
With “QVQLVESGGGLVQAGGSLRLSCAASGFIFVRYGMGWYRQAPGKERELVAAITWNGGSTFYADSVKGRFTISRDNAKNTVYLQMNSLKPEDTAVYYCAAGYKYSYRSIYTHVDYWGQGTQVTVSS” the entry was “low polyreactivity”; with “QVQLVESGGGLVQAGGSLRLSCAASGFIFVSNAMGWYRQAPGKERELVAAISKSGARTSYADSVKGRFTISRDNAKNTVYLQMNSLKPEDTAVYYCAASGSGVGIYYKRGNYWGQGTQVTVSS”, “high polyreactivity”; with “QVQLVESGGGLVQAGGSLRLSCAASGFIFVTNAMGWYRQAPGKERELVAAINWSGGRTYYADSVKGRFTISRDNAKNTVYLQMNSLKPEDTAVYYCAADPYARLGEYGYWGQGTQVTVSS”, “low polyreactivity”.
With “QVQLVESGGGLVQAGGSLRLSCAASGFIFVTYAMGWYRHAPGKERELVAAITNSGGTTYYADSVKGRFTISRDNAKNTVYLQMNSLKPEDTAVYYCNKPYGAETAHREFDYWGQGTQVTVSS”, the “polyreactivity (PSR sort gate)” value is “low polyreactivity”.
With “QVQLVESGGGLVQAGGSLRLSCAASGFIFVVYAMGWYRQAPGKERELVAAITNGGITYYADSVKGRFTISRDNAKNTVYLQMHSLKPEDTADYYCNAQYTDYDGYVGYYYWGEGTQVTVSS” the entry was “low polyreactivity”.
For the sequence “QVQLVESGGGLVQAGGSLRLSCAASGFIFVVYTMGGYRQEPGKVRELVAAITSGGSTYYADSVKGRFTISRDNAKNTVYLQMNSLKPEDTAVYYCNALASRYQAYYYWGQGTQVTVSS”, the “polyreactivity (PSR sort gate)” value is given as “low polyreactivity”.
Take “QVQLVESGGGLVQAGGSLRLSCAASGFIFVWYAMGWYRQAPGKERELVAAISWSGGNTYYADSVKGRFTISRDNAKNTVYLQMNSLKPEDTAVYYCNVVYFDGNPEDYDYWGQGTQVTVSS”: the “polyreactivity (PSR sort gate)” value is “high polyreactivity”.
With “QVQLVESGGGLVQAGGSLRLSCAASGFIFVYNDMGWYRQAPGKERELVAAISTSGGSTYYADSVKGRFTISRDNAKNTVYLQMNSLKPEDTAVYYCAAGPSYYPFFWPDFEYWGQGTQVTVSS” the entry was “high polyreactivity”; with “QVQLVESGGGLVQAGGSLRLSCAASGFIFVYYAMGWYRQAPGKERELVAAISSRGGSTYYADSVKRRFTISRDNAKNTVYLQMNSLKPEDTAVYYCAARPSSRRYGTIMDYWGQGTQVTVSS”, “high polyreactivity”.
With “QVQLVESGGGLVQAGGSLRLSCAASGFIFVYYAMGWYRQAPGKERELVATISSSSASTYYADSVKGRFTISRDNAKNTVYLQMNSLKPEDTAVYYCAVLVSRYRYRVLDDSWGQGTQVTVSS” the entry was “high polyreactivity”.
“QVQLVESGGGLVQAGGSLRLSCAASGFIFWEYAMGWYRQAPGKERELVAVISYRGGSTYYADSVKGRFTISRDNAKNTVYLQMNSLKPEDTAVYYCNADTIPDGEDRYDYWGQGTQVTVSS”: the “polyreactivity (PSR sort gate)” value is given as “low polyreactivity”.
With “QVQLVESGGGLVQAGGSLRLSCAASGFIFWFYAMGWYRQAPGKERELVASISASGGSTNYADSVKGRFTISRDYAKKTVYLQMNSLKPEDTAVYYCAARKRYLRGYWGQGTQVTVSS” the entry was “high polyreactivity”; with “QVQLVESGGGLVQAGGSLRLSCAASGFIFWIYAMGWYRQAPGKEREFVAVITYRGDTSYYADSVKGRFTISRDNAKNTVYLQMNSLKPEDTAVYYCAAYTVQKYGYWGQGTQVTVSS”, “low polyreactivity”; with “QVQLVESGGGLVQAGGSLRLSCAASGFIFWLYALGWYRKAPGKERELVASINWSGGDTYYADSVKGRFTISRDNPKNTVYLQLNSLKPEDTAVYYCNAQVYRYRIGYDYWGQGPQVTVSS”, “low polyreactivity”.
With “QVQLVESGGGLVQAGGSLRLSCAASGFIFWRYAMGWYRQAPGKDRELVAAISSTGRTYYADSVKGRFTISRDNAKNTVYLQMNSLKPEDTAVYYCNAAPVYLADPTRKYKADYWGQGTQVTVSS”, the “polyreactivity (PSR sort gate)” value is on record as “low polyreactivity”.
With “QVQLVESGGGLVQAGGSLRLSCAASGFIFWRYAMGWYRQAPGKERELVAAITSGGRTNYADSVKGRFTISRDNAKNTVYLQMNSLKPEDTAVYYCAADRSWSPRAGWYDYWGQGTQVTVSS” the entry was “high polyreactivity”; with “QVQLVESGGGLVQAGGSLRLSCAASGFIFWRYAMGWYRQAPGKERELVATITSSGGTTHYADSVKGRFTISRDNAKNTVYLQMNSLKPEDTAVYYCATRKGVGSLYYSRNYWGQGTQVTVSS”, “high polyreactivity”.
For “QVQLVESGGGLVQAGGSLRLSCAASGFIFWRYTMGWYRQAPGKERELVAVISWRGDNTYADSVEGRFTISRDNAKNTVYLQMNSLKPEDTAVYYCGVYRYDYWGQGTQVTVSS”, the “polyreactivity (PSR sort gate)” value is given as “low polyreactivity”.
With “QVQLVESGGGLVQAGGSLRLSCAASGFIFWSNAMGWYRQAPGKERELVAAINSSGGRTYYADSVKGRFTISRDNAKNTVYLQMNSLKPEDTAVYYCAARLHSPRYRYDYWGQGTQVTVSS” the entry was “high polyreactivity”.
With “QVQLVESGGGLVQAGGSLRLSCAASGFIFWTYAMGWYRQAPGKERELVAAITWSGTSTYYADSVKGRFTISRDNAKNTVYLQMNSLKPEDTAVYYCNALYYSRRVDYWGQGTQVTVSS” the entry was “high polyreactivity”; with “QVQLVESGGGLVQAGGSLRLSCAASGFIFWYNAMGWYRPAPGKEREFVAAISSGGSTTYADSVKGRFTISRDNAKNTVYLQMNSLKPEDTAVYYCAAGSYDYDYWGQGTQVTVSS”, “low polyreactivity”.
For “QVQLVESGGGLVQAGGSLRLSCAASGFIFWYYAMGWYRPAPGKERELVATITRGGSTYYADSVKGRFTISRDNAKNTVYLQLNSLKPEDTAVYYCNAVRPKIYDYWGQGTQVTLSS”, the “polyreactivity (PSR sort gate)” value is reported as “high polyreactivity”.
With “QVQLVESGGGLVQAGGSLRLSCAASGFIFWYYAMGWYRQAPGKERELVATITSGGSTTYADSVKGRFTISRDNAKNTVYLQMNSLKPEDTAVYYCAAKGISRYDWGQGTQVTVSS” the entry was “low polyreactivity”; with “QVQLVESGGGLVQAGGSLRLSCAASGFIFYANAMGWYRQAPGKERELVAAITWSGSRTYYADSVKGRFTISRDNAKNTVYLQMNSLKPEDTAVYYCNKDWYVGSFGYPEDYWGQGTQVSVSS”, “low polyreactivity”.
